The text below walks through data of patent US20230416362A1 (INDUSTRIAL TECHNOLOGY RESEARCH INSTITUTE, published 2023).

The target in assay [1] is T1, human TIGIT expressed on cells (TIGIT/Jurkat cells; MJ[G11] cells; PBMC T cells) (human, UniProt Q495A1 22-244).
T1 construct: The cell line is named under assay; also called human TIGIT-expressing Jurkat cells
T1 sequence: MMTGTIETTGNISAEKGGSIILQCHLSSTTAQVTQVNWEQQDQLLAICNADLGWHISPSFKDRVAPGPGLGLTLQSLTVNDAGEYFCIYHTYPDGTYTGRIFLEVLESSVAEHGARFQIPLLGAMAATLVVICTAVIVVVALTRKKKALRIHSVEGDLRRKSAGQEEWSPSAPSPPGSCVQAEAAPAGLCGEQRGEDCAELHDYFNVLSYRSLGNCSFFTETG
The assay is described as follows: flow cytometry on TIGIT/Jurkat cells. The protocol:
Sequential dilutions of Protein A column-purified 7D4, 2C9, and 3A9 antibodies were separately incubated with 5×10⁵ of human TIGIT-expressing Jurkat cells (TIGIT/Jurkat) in 50 μl of FACS buffer (0.2% BSA in Dulbecco's phosphate-buffered saline (DPBS) containing 0.09% sodium azide) on ice for 1 hour. After washing, the cells were stained with anti-mouse IgG conjugated with PE dyes and antibody binding strength was analyzed by flow cytometry.
For orientation: A flow cytometer gives signals particle by particle.

The target in assay [2] is T2, TIGIT-biotin (TIGIT:CD155 Homogeneous Assay Kit, #72029) (human, UniProt Q495A1 22-141, limits assumed, biotin (site not stated)).
T2 construct: Kit reagent; also called human TIGIT
T2 chain: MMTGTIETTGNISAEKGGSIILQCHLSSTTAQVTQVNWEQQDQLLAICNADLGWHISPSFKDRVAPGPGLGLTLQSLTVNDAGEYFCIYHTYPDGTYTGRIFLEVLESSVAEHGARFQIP
The assay is described as follows: AlphaLISA competition: TIGIT-biotin with antibody, then histidine-tagged CD155 as competitor. The method, then: To evaluate inhibition of binding of TIGIT to CD155 by anti-TIGIT antibodies, AlphaLISA assays were performed using a TIGIT:CD155 Homogeneous Assay Kit (PBS Biosciences, #72029). Aliquots (6 μl) of solution containing TIGIT-biotin (final concentration 0.2 ng/μl) and 4-fold serial dilution of the test antibodies (final volume 2 μl) were added into a 384-well plate. The plates were covered with a lid and incubated at room temperature for 30 min. Then, 2 μl of histidine-tagged CD155 were added (final concentration 0.05 ng/μl) into each well and incubated at room temperature for 60 min. Finally, aliquots (5 μl) of streptavidin-conjugated donor beads (final concentration 10 μg/ml) and 5 μl of anti-His tag acceptor beads (final concentration 20 μg/ml) were added and the plate was incubated at room temperature for 30 min in the dark. AlphaLISA signals were measured on an EnSpire Alpha 2390 (Perkin-Elmer Life Sciences). 15A6 (U.S. Pat. No. 10,189,902) and MBSA43 (Thermo Fisher Scientific, #16-9500-82) were used as reference antibodies.
These antibodies were selected for further functional studies.
In general terms: Alpha assays give light when donor and acceptor beads are brought close together.

In assay [3] the target is T3, hTIGIT (ELISA of Table 7) (human, UniProt Q495A1 22-141, limits assumed).
T3 construct: whole entry named; also called human TIGIT
T3 chain: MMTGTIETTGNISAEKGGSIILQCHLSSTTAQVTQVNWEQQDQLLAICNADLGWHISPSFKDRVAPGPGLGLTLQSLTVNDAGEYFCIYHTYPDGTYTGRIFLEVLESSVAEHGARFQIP
The assay is described as follows: ELISA binding. Background: ELISA stands for enzyme-linked immunosorbent assay.

Assay [4] deals with T4, mTIGIT (ELISA of Table 7) (mouse, UniProt P86176 29-145, limits assumed).
T4 construct: also called mouse TIGIT
T4 sequence (looked up): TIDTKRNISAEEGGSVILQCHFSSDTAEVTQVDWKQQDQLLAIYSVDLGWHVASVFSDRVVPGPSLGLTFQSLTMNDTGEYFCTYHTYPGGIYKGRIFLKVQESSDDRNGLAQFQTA
The assay is described as follows: ELISA binding.

Assay [5] concerns the target T4, mTIGIT (ELISA of Table 7). The assay is described as follows: mTIGIT/mCD155 competition ELISA; competitor mCD155.
Assay [6] addresses T5, human TIGIT IgV domain Q56A (human, UniProt Q495A1 22-141, limits assumed).
T5 construct: Made in Expi293F cells, purified on Strep-Tactin XT; Limits of the IgV domain not readable, whole entry named; also called Q56 single alanine substitution mutant
T5 chain: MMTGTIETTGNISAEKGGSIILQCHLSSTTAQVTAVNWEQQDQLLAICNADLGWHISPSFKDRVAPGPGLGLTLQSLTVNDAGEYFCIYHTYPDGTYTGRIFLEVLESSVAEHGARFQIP
Put plainly: ELISA on TIGIT IgV point mutants. The protocol: (§1) To further identify the amino acid residues of TIGIT that interact with the recombinant 7D4 mIgG2a antibody, single alanine substitution mutants were generated in the human TIGIT IgV domain by site-directed mutagenesis using standard molecular techniques. ELISA binding assays were then performed to assess 7D4 binding strength.
(§2) To identify the amino acid residues of TIGIT that interact with the humanized 7D4 variant, 1A11 (in human IgG1-DLE isotype), ELISA binding assays with the single alanine substitution mutants were performed to assess 1A11 binding strength. […] Similar to the parental mouse 7D4 antibody, Q56 and Y106 single alanine substitution mutants completely abolished the binding of 1A11.

Assay [7] addresses T6, human TIGIT IgV domain G74A (human, UniProt Q495A1 22-141, limits assumed).
T6 construct: Made in Expi293F cells, purified on Strep-Tactin XT; Limits of the IgV domain not readable, whole entry named; also called G74 single alanine substitution mutant
T6 chain: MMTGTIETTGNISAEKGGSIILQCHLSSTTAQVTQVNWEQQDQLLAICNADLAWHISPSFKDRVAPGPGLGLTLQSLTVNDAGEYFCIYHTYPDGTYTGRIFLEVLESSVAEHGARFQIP
The assay is described as follows: ELISA on TIGIT IgV point mutants. The method, then: as §1, §2

The target in assay [8] is T7, human TIGIT IgV domain Y106A (human, UniProt Q495A1 22-141, limits assumed).
T7 construct: Made in Expi293F cells, purified on Strep-Tactin XT; Limits of the IgV domain not readable, whole entry named; also called Y106 single alanine substitution mutant
T7 chain: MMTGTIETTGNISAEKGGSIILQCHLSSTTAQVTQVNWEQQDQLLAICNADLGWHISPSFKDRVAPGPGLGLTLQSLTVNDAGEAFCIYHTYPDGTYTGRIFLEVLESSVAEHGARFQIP
The assay is described as follows: ELISA on TIGIT IgV point mutants. The method, then:
as §1, §2

The target in assay [9] is T8, human TIGIT IgV domain Y110A (human, UniProt Q495A1 22-141, limits assumed).
T8 construct: Made in Expi293F cells, purified on Strep-Tactin XT; Limits of the IgV domain not readable, whole entry named; also called Y110 single alanine substitution mutant
T8 chain: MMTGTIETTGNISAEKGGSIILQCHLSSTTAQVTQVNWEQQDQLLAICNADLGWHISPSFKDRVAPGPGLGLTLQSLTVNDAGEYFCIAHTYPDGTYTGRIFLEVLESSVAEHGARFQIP
The assay is described as follows: ELISA on TIGIT IgV point mutants. The protocol: as §1, §2

The target of assay [10] is T9, human TIGIT IgV domain H111 single alanine substitution mutant (human, UniProt Q495A1 22-141, limits assumed).
T9 construct: Printed as "H111" in the list of mutants; the text calls it a single alanine substitution mutant; Limits of the IgV domain not readable, whole entry named; also called H111A
T9 chain: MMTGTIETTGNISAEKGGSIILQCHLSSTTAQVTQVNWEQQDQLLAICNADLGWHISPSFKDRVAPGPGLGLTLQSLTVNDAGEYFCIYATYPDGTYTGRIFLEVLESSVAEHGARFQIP
Put plainly: ELISA on TIGIT IgV point mutants. The method, then: as §1, §2

B1: 2C9 (antibody, V domains shown)
VH: DIQLKQSGAELVRPGASVKLSCKASGYTFTDSYINWVKQRPGQGLEWIARFYPGSGNTYYNEKFKGKATLTAEKSSSTAYMQLSSLTSEDSAVYFCAREAWLLFYGMDYWGQGTTVTVSS
VL: DIVLTQSPAIMSASPGEKVTISCSANSSVSYMYWYQQKPGSSPKPWIYRTSNLASGVPARFSGSGSGTSYSLTISSMEAEDAATYYCQQYHSYPLTFGAGTKLELK
notes: Mouse monoclonal antibody from hybridoma clone 2C9, Protein A purified; also called anti-TIGIT monoclonal antibody 2C9
For orientation: Kd means the constant that tells how readily two partners part at equilibrium. A high value points to a looser complex. Usually IC50 stands for the concentration that gives 50% inhibition. Read a low IC50 as greater potency in that assay. For the molecule B1, the affinity in [1], expressed as Kd, was 2 nM. In [2], this molecule returned an IC50 of 0.4 nM.

B2: 1G3 mIgG2a-DLE (antibody, V domains shown)
VH: DIQLVQSGGGLVKPGGSLRLSCAASGYTFTNYWIGWVRQTPGKGLEWVGDIYPGSSFTNSNEKFKGRFTISADKSKNTAYLQMNSLRAEDTAVYYCARDMVGYWYFDVWGQGTLVTVSS
VL: DIVLTQSPATLSASLGERATLSCSASSSVSYIHWYQQKPGQAPKLLIYTTSNLASGVPSRFSGSGSGTDFTLTISSLEAEDFATYYCHQWSRYPTFGGGTKLEIK
notes: Mouse IgG2a isotype with DLE (S239D/A330L/I332E) mutations at the Fc region
The EC50 is the concentration needed to bring the measured effect to its halfway point. Read a high EC50 as lower potency in that assay. Regarding B2, the figures for the EC50 in assay [3] and in assay [4] were 9.4 nM and 3.6 nM, respectively. The molecule also yielded an IC50 in [5] of 61.7 nM.

B3: 1A11 hIgG1-DLE (antibody, V domains shown)
VH: EVQLVQSGGGLVKPGGSLRLSCAASGYTFTNYWIGWVRQTPGKGLEWVGDIYPGSSFTNSNEKFKGRFTISADKSKNTAYLQMNSLRAEDTAVYYCARLGRGYWYFDVWGQGTLVTVSS
VL: DIVLTQSPATLSASLGERATLSCSASSSVSYIHWYQQKPGQAPKLLIYTTSNLASGVPSRFSGSGSGTDFTLTISSLEAEDFATYYCQLFRSGSAFGGGTKLEIKR
notes: Human IgG1 with DLE mutations at the Fc region, expressed in CHO-S cells; also called humanized 7D4 variant 1A11 (in human IgG1-DLE isotype)
Take B3: the binding result in assay [6] and in assay [8] was “no binding” each time. Besides, the “reduction in binding against the wild type” value in [7], in assay [9] and in assay [10] was over 40% each time.

B4: 2F1 mIgG2a-DLE (antibody, V domains shown)
VH: DIQLVQSGGGLVKPGGSLRLSCAASGYTFTNYWIGWVRQTPGKGLEWVGDIYPGSSFTNSNEKFKGRFTISADKSKNTAYLQMNSLRAEDTAVYYCARVIVGYWYFDVWGQGTLVTVSS
VL: DIVLTQSPATLSASLGERATLSCSASSSVSYIHWYQQKPGQAPKLLIYTTSNLASGVPSRFSGSGSGTDFTLTISSLEAEDFATYYCHQWSRYPTFGGGTKLEIK
notes: as for B2
In the case of B4, the concentration for a half-maximal effect (EC50) in [3] amounted to 464 nM; in [4], 1.1 nM. In addition, in assay [5], the IC50 came to 33.8 nM.

B5: 3H2 mIgG2a-DLE (antibody, V domains shown)
VH: DIQLVQSGGGLVKPGGSLRLSCAASGYTFTNYWIGWVRQTPGKGLEWVGDIYPGSSFTNSNEKFKGRFTISADKSKNTAYLQMNSLRAEDTAVYYCARIRLGYWYFDVWGQGTLVTVSS
VL: DIVLTQSPATLSASLGERATLSCSASSSVSYIHWYQQKPGQAPKLLIYTTSNLASGVPSRFSGSGSGTDFTLTISSLEAEDFATYYCHQWSRYPTFGGGTKLEIK
notes: as for B2
For B5, the EC50 in [3] amounted to 0.9 nM; in assay [4] it was 0.7 nM. In assay [5], the IC50 worked out at 12.4 nM.

B6: hz7D4 mIgG2a (antibody, V domains shown)
VH: EVQLVQSGGGLVKPGGSLRLSCAASGYTFTNYWIGWVRQTPGKGLEWVGDIYPGSSFTNSNEKFKGRFTISADKSKNTAYLQMNSLRAEDTAVYYCARLGRGYWYFDVWGQGTLVTVSS
VL: DIVLTQSPATLSASLGERATLSCSASSSVSYIHWYQQKPGQAPKLLIYTTSNLASGVPSRFSGSGSGTDFTLTISSLEAEDFATYYCHQWSRYPTFGGGTKLEIK
Consider B6, for which the EC50 in assay [3] was 0.3 nM; in assay [4], 217 nM.

B7: 3A9 (antibody, V domains shown)
VH: QVQLQQPGAELVRPGSSVKLSCKASGYTFTSYWMHWVKQRPIQGLEWIGNIDPSDSATHYNQKFKDKATLTVDKSSSTAYMHLSSLTSEDSAVYYCARTGIDYGSSYFDYWGQGTILTVSS
VL: DIVLTQSPASLAVSLGQRATISCRASQSVSTSSYSYIHWYQQKPGQPPKLLIKYASNLESGVPARFSGSGSGTDFTLNIHPVEEEDTATYYCQHNWEIPRTFGGGTKLEIK
notes: Mouse monoclonal antibody from hybridoma clone 3A9, Protein A purified; also called anti-TIGIT monoclonal antibody 3A9
In turn, B7 had a dissociation constant Kd in [1] of 1.86 nM. The IC50 in [2] was 0.55 nM.

B8: recombinant 7D4 mIgG2a antibody (antibody, V domains shown)
VH: QVQLKHSGAELVRPGTSVKMSCKASGYTFTNYWIGWAKQRPGHGLEWIGDIYPGSSFTNSNEKFKGKATLTADKSSSTAYMQFSSLTSEDSAIYYCAKLGRGYWYFDVWGTGTSVTVSA
VL: DIVLTQSPAIMSASLGEEITLTCSASSSVSYIHWYQQKSGTSPKLLIYTTSNLASGVPSRFSGSGSGTFYSLTISSVEAEDAADYYCHQWSRYPTFGGGTKLEIK
notes: Recombinant form with mouse IgG2a constant region (vector pFUSEss-CHIg-mG2a); also called recombinant 7D4 antibody (in mouse IgG2a isotype)
In the case of B8, the binding result in assay [6] and in assay [8] was “no binding” throughout. Moreover, the “reduction in binding against the wild type” value in [7] was 50%; in assay [9], over 50%; in [10] it was over 50%.
